According to paper doi:10.1101/2021.04.12.439405 (bioRxiv, 2021):

Molecular target: the molecule itself
Assay: native MS

B1: His-MukF (natural protein, E. coli, UniProt P60293 1-440, looked up)
chain: MSEFSQTVPELVAWARKNDFSISLPVDRLSFLLAVATLNGERLDGEMSEGELVDAFRHVSDAFEQTSETIGVRANNAINDMVRQRLLNRFTSEQAEGNAIYRLTPLGIGITDYYIRQREFSTLRLSMQLSIVAGELKRAADAAEEGGDEFHWHRNVYAPLKYSVAEIFDSIDLTQRLMDEQQQQVKDDIAQLLNKDWRAAISSCELLLSETSGTLRELQDTLEAAGDKLQANLLRIQDATMTHDDLHFVDRLVFDLQSKLDRIISWGQQSIDLWIGYDRHVHKFIRTAIDMDKNRVFAQRLRQSVQTYFDEPWALTYANADRLLDMRDEEMALRDEEVTGELPEDLEYEEFNEIREQLAAIIEEQLAVYKTRQVPLDLGLVVREYLSQYPRARHFDVARIVIDQAVRLGVAQADFTGLPAKWQPINDYGAKVQAHVIDKY
Question: Does B1 bind?
Answer: Result: binds
